From patent publication US20260185102A1, “LIGAND-BINDING NUCLEIC ACID COMPLEX” (RENA THERAPEUTICS INC., priority 2021, published 2026)
Blank lines part the entries; values can stand above or below the molecule they belong to. In the oligonucleotide strings, read from the 5' end, every base follows the letter of its sugar. An asterisk marks phosphorothioate; unmarked linkages are phosphodiester. Other units and linkages are bracketed, terminal groups are in braces. A string of capitals states the bases alone. Where no end group is shown, it is not given here. [ ]: non-standard residue; d: D form. {L001} = PTH1 ligand L001 attached via a dibenzocyclooctyne-succinyl-hexylamino linker; l = locked nucleic acid (LNA); [5mC] = 5-methylcytosine; Aib = CC(C)(N)C(=O)O; d = 2'-deoxy (DNA); m = 2'-O-methyl; r = 2'-OH (RNA)

Experiments:
[1] = Tm of ligand-bound HDO6 duplex; format: physicochemical; conditions: HDO6 with ligand introduced into complementary strand
mouse Malat1 ncRNA [2] = experiment: Malat1 ncRNA expression in mouse kidney after intravenous or subcutaneous PTH1 ligand-HDO (Example 5); format: in vivo; conditions: intravenous, 1 μmol/kg
Experimental: The nucleic acid complexes used in Example 5 are each a conjugate of 16-mer HDO or ASO targeting mouse Malat1 ncRNA prepared in the example above and the PTH1 ligand. The present inventors adjusted the oligo complex with physiological saline (Otsuka Pharmaceutical Co., Ltd.), the oligo complex for animal evaluation was denatured in a block bath (CDB-105, AS ONE Corporation), and the double-stranded HDO for cell evaluation was subjected to an annealing procedure comprising denaturing at 90° C. for 10 minutes and then naturally cooling to room temperature over a period of about 2 hours in a T100 thermal cycler (Bio-Rad). […]
For mRNA extraction, tissue was fractured by bead crushing using a TissueLyser II (QIAGEN). Total RNA was extracted from the solution containing fractured tissue using the ReliaPrep™ RNA Tissue Miniprep System (Promega Corporation). cDNA was prepared from total RNA by reverse transcription using the PrimeScript™ RT Master Mix (TaKaRa). mRNA expression of each gene was measured using the real-time PCR system (StepOnePlus, Applied Biosystems). […]
All the measured values were indicated in terms of “mean±standard deviation.” Statistical analysis was performed using GraphPad Prism 9.4.0. […]

[3] = Intrarenal distribution, immunostained kidney images after L001-HDO6-Alexa488 (Example 4); format: in vivo, mouse; conditions: 1 μmol/kg, c57BL/6J mice
Experimental: The fluorescence-labeled ASO comprising Alexa488 bound to the 5′ terminus of the antisense strand (SEQ ID NO: 179) prepared in Example 2 was annealed to the L001 complementary strand (SEQ ID NO: 180) by the method described in Example 2 to form a duplex complex. Thus, the fluorescence-labeled HDO (L001-HDO6-Alexa488) was prepared.
The immunohistochemical test was performed with the use of c57BL/6J mice (12 mice). The fluorescence-labeled HDO (L001-HDO6-Alexa488) was intravenously administered to mice at […] once, a blood sample was taken from the heart under anesthesia with isoflurane 10 minutes, 6 hours, 24 hours, and 72 hours later, the kidney was perfused by left ventricular cannulation with 10 ml of saline followed by 10 ml of 4% paraformaldehyde solution, and the kidney was extracted from the mice. The extracted kidney was soaked in 4% paraformaldehyde to prepare frozen sections. The frozen sections were stained with Nephrin (the primary antibody: mouse Nephrin affinity purified polyclonal antibody, Goat IgG (AF3459), R&D Systems) and Alexa Fluor 594 (the secondary antibody: chicken anti-goat IgG (H+L) (A-21468), Invitrogen) to observe the renal glomerulus, and the frozen sections were stained with a DAPI (4′,6-diamidino-2-phenylindole) solution to observe the DNA-containing cell nuclei. The fluorescent images of the pathological sections were incorporated with the use of the Olympus VS120 Slide Scanning System.
The photograph in the lower right is an image obtained by superposing the aforementioned 3 photographs superposed on top of each other (merged).

mouse Malat1 ncRNA [4] = experiment: mMalat1 ncRNA expression in mouse liver and kidney after intravenous L001-HDO6 (Example 3); format: in vivo; conditions: c57BL/6J mice, 1 μmol/kg intravenous, Day 3; compared with vehicle and L001 complementary strand groups
Experimental: The nucleic acid complex used in Example 3 is L001-HDO6, which is a conjugate of 16-mer HDO targeting mouse Malat1 ncRNA prepared in Example 2 and the L001 ligand. The present inventors adjusted the oligo complex to 100 μM with physiological saline (Otsuka Pharmaceutical Co., Ltd.), and double-stranded HDO was subjected to an annealing procedure comprising denaturing at 90° C. for 5 minutes and then naturally cooling to room temperature over a period of about 2 hours in a block bath (CDB-105, AS ONE Corporation).
Species differences in the PTH1 receptor, PTH, and PTHrP are insignificant between humans and mice. […]
Method Mice were divided into groups depending on body weights: the vehicle (saline, Otsuka Pharmaceutical Co., Ltd.) administration group; the L001 complementary strand (1 μmol/kg) administration group; and the L001-HDO6 (1 μmol/kg) administration group (each group consisting of 5 mice (n=5)). […] On the day of autopsy, body weight of each mouse was measured, a blood sample was taken from the heart under anesthesia with isoflurane (introduced at 3% to 5%, maintained at 1% to 3%) (Terumo syringe SS-01P2525, containing the anticoagulant heparin), and mice were euthanized by exsanguination. […]
All the measured values were indicated in terms of “mean±standard deviation.” For statistical analysis, the one-way analysis of variance (ANOVA) was performed using GraphPad Prism 7.04. […]

[5] = biological target: T1, mouse Pth1R (mPth1R), stably expressed on NIH/3T3 cells (mouse, UniProt P41593 27-591); experiment: cell-based or functional assay
T1 sequence (looked up): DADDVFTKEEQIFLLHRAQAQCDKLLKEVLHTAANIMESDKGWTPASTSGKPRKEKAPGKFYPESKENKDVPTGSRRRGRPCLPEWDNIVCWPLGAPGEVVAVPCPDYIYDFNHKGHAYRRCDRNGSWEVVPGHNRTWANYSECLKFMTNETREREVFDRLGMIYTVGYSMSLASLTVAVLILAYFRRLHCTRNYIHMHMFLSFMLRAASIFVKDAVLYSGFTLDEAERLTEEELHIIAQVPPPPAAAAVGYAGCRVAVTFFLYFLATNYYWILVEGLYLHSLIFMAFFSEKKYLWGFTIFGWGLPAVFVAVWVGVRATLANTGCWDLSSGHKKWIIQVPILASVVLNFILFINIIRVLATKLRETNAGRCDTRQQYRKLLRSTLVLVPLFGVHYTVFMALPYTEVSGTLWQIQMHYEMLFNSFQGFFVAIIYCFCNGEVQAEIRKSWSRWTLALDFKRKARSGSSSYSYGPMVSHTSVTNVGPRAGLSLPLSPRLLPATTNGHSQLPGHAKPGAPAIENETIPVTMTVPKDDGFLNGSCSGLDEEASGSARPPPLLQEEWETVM

[6] = 10 minutes after single intravenous administration

Molecule: L001-HDO6: HDO targeting mouse Malat1 ncRNA: antisense strand SEQ ID NO: 179, complementary strand SEQ ID NO: 180 bound to PTH1 ligand L001 (antisense l[5mC]*lT*lA*dG*dT*dT*dC*dA*dC*dT*dG*dA*dA*lT*lG*l[5mC]; sense {L001}-mG*mC*mA*rUrUrCrArGrUrGrArArC*mU*mA*mG)
Tm [1]: 64 °C | Malat1 ncRNA expression in the kidney (mouse Malat1 ncRNA [2]; Day 3, compared with the saline administration group): lowered to a statistically significant extent | Malat1 ncRNA expression in the kidney (mouse Malat1 ncRNA [2]; Day 3, in comparison with HDO without ligand): lowered to a statistically significant extent | fluorescence Alexa-488 in the glomerulus ([3]; 6, 24, or 72 hours after single intravenous administration): no fluorescence was observed | fluorescence Alexa-488 in kidney tubular cells [3, 6]: observed | fluorescence Alexa-488 in the glomerulus [3, 6]: slightly observed | fluorescence Alexa-488 in kidney tubular cells ([3]; 6 hours after single intravenous administration): intensified | fluorescence Alexa-488 in kidney tubular cells ([3]; 24 hours after single intravenous administration): maximum fluorescence was observed | fluorescence Alexa-488 in kidney tubular cells ([3]; 72 hours after single intravenous administration): still observed in many kidney tubules | mMalat1 ncRNA expression level in the kidney (mouse Malat1 ncRNA [4]): lowered in the L001-HDO6 administration group to a significant extent | mMalat1 ncRNA expression level in the liver (mouse Malat1 ncRNA [4]): lowered in the L001-HDO6 administration group to a significant extent

B1: L005-HDO6 (peptide)
peptide: HQLLHDKGKSIQDLRRRELLEKLLAKLHKA
modifications: not fully specified (residue 29); printed as HQLLHDKGKSIQDLRRRELLEKLLAKLH(K-PEG3-Unit)A
IC50 of lowering Malat1 ncRNA expression level in the mPth1R-stably expressing cell line [5]: 121 nM

B3: L001-ASO (peptide)
peptide: AVSEHQLLHDKGKSIQDLRRRELLEKLLAKLHKA
modifications: not fully specified (residue 33)
IC50 of lowering Malat1 ncRNA expression level in the mPth1R-stably expressing cell line [5]: 1.25 nM

B4: L003-HDO6 (peptide)
peptide: SEHQLLHDKGKSIQDLRRRELLEKLLAKLHKA
modifications: not fully specified (residue 31)
IC50 of lowering Malat1 ncRNA expression level in the mPth1R-stably expressing cell line [5]: 88.9 nM

Now from value to molecule:

IC50 of lowering Malat1 ncRNA expression level in the mPth1R-stably expressing cell line [5]: 167 nM
B2: L010-HDO6 (peptide)
peptide: DKGKSIQDLRRRELLEKLLAKLHKA
modifications: not fully specified (residue 24); printed as DKGKSIQDLRRRELLEKLLAKLH(K-PEG3-Unit)A

IC50 of lowering Malat1 ncRNA expression level in the mPth1R-stably expressing cell line [5]: 46.8 nM
B5: L021-HDO6 (peptide)
peptide: AVSEHQLLHDKGKSIQDLRRRELLEKLL[Aib]KLHTAK
modifications: not fully specified (residue 35); also: prints K at position 33
